US20140235820A1, “METHODS AND COMPOSITIONS FOR MODULATING THE Wnt PATHWAY” (Genentech, Inc., priority 2010, published 2014)
Changes are numbered by the printed parent chain. Names may count otherwise. “Also recorded” adds a separate entry of the source.

B1: Dkk1 Ile42Glu (ligand, human, UniProt O94907 32-266, looked up)
chain: TLNSVLNSNAEKNLPPPLGGAAGHPGSAVSAAPGILYPGGNKYQTIDNYQPYPCAEDEECGTDEYCASPTRGGDAGVQICLACRKRRKRCMRHAMCCPGNYCKNGICVSSDQNHFRGEIEETITESFGNDHSTLDGYSRRTTLSSKMYHTKGQEGSVCLRSSDCASGLCCARHFWSKICKPVLKEGQVCTKHRRKGSHGLEIFQRCYCGEGLSCRIQKDHHQASNSSRLHTCQRH
notes: also called Dkk1 I42E
B2: Dkk1 K211E (ligand, human, UniProt O94907 32-266, looked up)
chain: B1 chain with E11I, K180E
notes: also called Dkk1 Lys211Glu

Tests used:
LRP6 E3E4 = target: T1, LRP6 E3E4 (Homo sapiens, UniProt O75581); test: Biolayer interferometry binding to LRP6 E3E4
T1 construct: construct E3E4 amino acids E631-Q1253 of LPR6; made in house; host or cells: Tni insect cells (baculovirus, secreted)
T1 sequence (O75581 631-1253): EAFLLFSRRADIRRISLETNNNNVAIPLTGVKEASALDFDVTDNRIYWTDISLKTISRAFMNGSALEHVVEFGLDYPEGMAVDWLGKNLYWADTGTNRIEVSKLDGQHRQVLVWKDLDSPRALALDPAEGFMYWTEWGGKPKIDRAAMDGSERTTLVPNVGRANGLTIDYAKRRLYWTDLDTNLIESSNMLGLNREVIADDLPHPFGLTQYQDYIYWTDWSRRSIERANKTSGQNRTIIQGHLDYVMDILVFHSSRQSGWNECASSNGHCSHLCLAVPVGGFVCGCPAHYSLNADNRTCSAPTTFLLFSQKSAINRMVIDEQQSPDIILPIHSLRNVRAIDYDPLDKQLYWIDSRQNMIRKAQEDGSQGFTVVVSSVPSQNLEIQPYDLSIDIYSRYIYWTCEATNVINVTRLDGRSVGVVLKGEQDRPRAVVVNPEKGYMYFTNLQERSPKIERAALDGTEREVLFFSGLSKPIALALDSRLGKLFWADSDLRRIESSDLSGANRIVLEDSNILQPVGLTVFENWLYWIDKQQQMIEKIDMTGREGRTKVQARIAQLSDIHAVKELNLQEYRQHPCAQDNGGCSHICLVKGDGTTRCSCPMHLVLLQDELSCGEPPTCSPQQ
Procedure, shortened: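 Biotinylated human LRP6 ectodomain constructs (β-propeller-EGF units, e.g. E2 D235–E631, E1E2 A20–E631, E3E4 E631–Q1253) were loaded on streptavidin sensors in pH 8 Tris, 300 mM NaCl, 5% glycerol, 0.05% Triton X-100, then exposed to Dkks or sclerostin. Kd came from steady-state analysis, averaging ≥3 concentrations (R²>0.96).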

LRP6 E1E4 = target: T2, LRP6 E1E4 (Homo sapiens, UniProt O75581); test: Biolayer interferometry binding to LRP6 E1E4
T2 construct: construct E1E4-amino acids A20-Q1253 of LPR6; made in house; host or cells: Tni insect cells (baculovirus, secreted)
T2 sequence (O75581 20-1253): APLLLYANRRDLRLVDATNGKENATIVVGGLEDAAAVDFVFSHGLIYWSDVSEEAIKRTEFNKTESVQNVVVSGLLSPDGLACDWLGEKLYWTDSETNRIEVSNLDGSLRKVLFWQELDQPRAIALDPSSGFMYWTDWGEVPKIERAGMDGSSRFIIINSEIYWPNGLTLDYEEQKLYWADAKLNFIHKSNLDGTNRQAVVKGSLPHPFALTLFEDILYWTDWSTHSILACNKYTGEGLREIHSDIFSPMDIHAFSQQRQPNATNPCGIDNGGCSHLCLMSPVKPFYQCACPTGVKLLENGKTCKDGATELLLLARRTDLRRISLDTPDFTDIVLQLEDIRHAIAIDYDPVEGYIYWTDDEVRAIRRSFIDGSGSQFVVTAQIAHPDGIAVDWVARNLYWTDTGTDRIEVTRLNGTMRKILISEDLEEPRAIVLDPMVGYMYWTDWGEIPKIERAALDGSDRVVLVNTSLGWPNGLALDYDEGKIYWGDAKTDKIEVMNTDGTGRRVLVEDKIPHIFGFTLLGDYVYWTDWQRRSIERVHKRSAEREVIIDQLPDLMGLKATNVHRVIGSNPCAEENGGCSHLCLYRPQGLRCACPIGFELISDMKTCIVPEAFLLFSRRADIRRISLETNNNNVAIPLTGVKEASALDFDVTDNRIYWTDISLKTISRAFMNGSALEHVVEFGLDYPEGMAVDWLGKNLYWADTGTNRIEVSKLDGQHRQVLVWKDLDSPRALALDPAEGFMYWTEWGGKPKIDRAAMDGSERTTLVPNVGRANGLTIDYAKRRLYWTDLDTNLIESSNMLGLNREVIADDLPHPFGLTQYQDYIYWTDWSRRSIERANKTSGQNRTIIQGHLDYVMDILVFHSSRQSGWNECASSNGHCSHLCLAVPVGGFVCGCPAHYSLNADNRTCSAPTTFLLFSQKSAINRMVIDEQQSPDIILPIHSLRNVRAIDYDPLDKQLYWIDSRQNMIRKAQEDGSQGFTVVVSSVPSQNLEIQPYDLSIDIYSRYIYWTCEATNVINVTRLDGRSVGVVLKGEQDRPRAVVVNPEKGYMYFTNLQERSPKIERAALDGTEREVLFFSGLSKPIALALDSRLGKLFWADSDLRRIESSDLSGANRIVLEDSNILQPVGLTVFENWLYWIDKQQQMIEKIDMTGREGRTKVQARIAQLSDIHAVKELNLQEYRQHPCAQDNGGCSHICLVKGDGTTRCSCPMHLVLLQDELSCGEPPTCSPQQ
Method: Binding kinetics were measured by biolayer interferometry using an Octet Red instrument (ForteBio) as previously described (11). Streptavidin (SA) biosensors were loaded with biotinylated hLRP6 in 50 mMTris, pH 8, 300 mM NaCl, 5% (v/v) glycerol, and 0.05% (w/v) Triton X-100. The loaded biosensors were washed in the same buffer before carrying out association and dissociation measurements for the indicated times. The Kd of each interaction was determined using steady state-analysis through the Octet Red software v6.3. Each reported value represents an average of three or more experiments at different concentrations, with a fitted experimental curve for which the square of the correlation coefficient (R^2) is above 0.96.
The interaction of the different Dkks and sclerostin with various domains of LRP6 was measured using a biolayer interferometry assay (11). Purified receptors contained individual β-propeller-EGF-like units (E1, E2, or E4), two β-propellers (E1E2 or E3E4), or four β-propellers (E1E4))—as follows:
Human LRP6: construct E1E4-amino acids A20-Q1253 of LPR6; construct E1E2-amino acids A20-E631 of LPR6; construct E3E4 amino acids E631-Q1253 of LPR6; construct E1-amino acids A20-D325 of LPR6; construct E2-amino acids […]-E631 of LPR6; construct E4-T933-Q1253. The individual LRP6 β-propeller E3 could not be expressed.

Molecule	Kd (LRP6 E3E4; steady state, read-out: affinity for LRP6 E3E4) [nM]	binding to LRP6 E3E4 (in words) (LRP6 E3E4)	binding to LRP6 E1E4 (in words) (LRP6 E1E4)
Dkk1: Dickkopf 1 protein, Wnt pathway inhibitor, expressed in insect cells (NSNAIKN)	51		
sclerostin: Sclerostin protein, Wnt pathway inhibitor, expressed in insect cells (LPNAIGR)		does not interact	binds
B1		not to E3E4	retain binding
B2		interfered with binding; also recorded: affect binding	retain binding
